From patent publication US20210380975A1

Tests used:
[1] = target: AKAP 150 (rat A-kinase anchor protein) (rat) (UniProt P24587); assay: cell-based or functional assay
[2] = target: IL-6 (human, in degenerative IVD conditioned media) (human) (UniProt P05231); assay: cell-based or functional assay
UniProt P05231, sequence (P05231 30-212 limits assumed): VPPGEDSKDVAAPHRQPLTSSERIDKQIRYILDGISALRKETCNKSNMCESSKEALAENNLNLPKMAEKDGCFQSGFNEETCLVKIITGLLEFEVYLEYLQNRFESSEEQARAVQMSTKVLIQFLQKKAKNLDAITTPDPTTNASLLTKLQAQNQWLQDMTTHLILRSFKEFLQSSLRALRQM

UniProt P24587, sequence (P24587 whole entry): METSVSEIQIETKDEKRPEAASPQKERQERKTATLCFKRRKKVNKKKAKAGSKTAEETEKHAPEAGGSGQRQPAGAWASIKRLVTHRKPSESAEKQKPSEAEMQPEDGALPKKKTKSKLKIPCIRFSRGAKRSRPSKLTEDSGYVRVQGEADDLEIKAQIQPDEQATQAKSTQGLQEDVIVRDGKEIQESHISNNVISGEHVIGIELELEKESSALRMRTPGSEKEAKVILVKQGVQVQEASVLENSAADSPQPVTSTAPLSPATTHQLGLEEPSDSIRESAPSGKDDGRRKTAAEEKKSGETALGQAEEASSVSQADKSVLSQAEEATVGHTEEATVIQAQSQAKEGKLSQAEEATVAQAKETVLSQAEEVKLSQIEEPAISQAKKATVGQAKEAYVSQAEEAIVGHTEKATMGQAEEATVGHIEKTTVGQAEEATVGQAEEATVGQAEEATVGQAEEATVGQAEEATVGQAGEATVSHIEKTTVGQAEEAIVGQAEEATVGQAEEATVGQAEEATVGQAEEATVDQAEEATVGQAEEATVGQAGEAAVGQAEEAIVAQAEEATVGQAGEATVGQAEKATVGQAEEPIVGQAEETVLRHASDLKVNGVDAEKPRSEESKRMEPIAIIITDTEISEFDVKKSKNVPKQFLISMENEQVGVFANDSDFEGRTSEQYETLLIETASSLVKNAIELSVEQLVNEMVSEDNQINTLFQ

Row | percentage of rat DRG neurons firing at 39° C. in degenerative IVD conditioned media [1] [%] | maximum firing response of DRG neurons (Boltzmann fit) [2] [%] | Substance
1 | 15.5 | – | AKAP inhibitor peptide St-Ht31 (Promega)
2 | 61.9 | – | Control peptide St-Ht31P (Promega)
3 | – | 66 | Mouse isotype control antibody (Life Technologies)
